Experimental findings from paper PMC4893161, “The Dynamic Localization of Cytoplasmic Dynein in Neurons Is Driven by Kinesin-1” (Neuron, 2016) are described below.

For test [1], the target named is T1, WD1^pept, TAMRA-conjugated 11-amino-acid peptide centered on the first tryptophan motif of DIC1 (TAMRA-conjugated (position not given)).
T1 construct: 11 residues of dynein intermediate chain 1 centered on the first tryptophan motif (WD1) in AS loop 1; also called WD1 peptide; peptide of the first DIC1 tryptophan motif
As to the kind of experiment: fluorescence polarisation; TAMRA-conjugated DIC1 tryptophan-motif peptides with purified KLC1 or KLC2 TPR domain; KD values determined at 150 mM NaCl. Particulars: both partners purified.

For test [2], the target named is T2, mCherry-tagged DIC1a (dynein intermediate chain 1, isoform a), wild-type (UniProt Q63100 1-643).
T2 construct: cytoplasmic dynein intermediate chain 1, neuron-specific isoform DIC1a with both alternatively spliced regions (AS loop 1 with WD1, AS loop 2 with WD2); also called WT DIC1a; source: COS cells, cotransfected, in lysate
As to the kind of experiment: co-IP; COS cells cotransfected with mCherry-tagged DIC1a (wild-type or WD mutants) and HA-tagged KLC1 or KLC2; IP with anti-mCherry; western blotting with anti-DIC and anti-HA. Particulars: partners not purified.

T2 sequence (Q63100 whole entry, canonical isoform): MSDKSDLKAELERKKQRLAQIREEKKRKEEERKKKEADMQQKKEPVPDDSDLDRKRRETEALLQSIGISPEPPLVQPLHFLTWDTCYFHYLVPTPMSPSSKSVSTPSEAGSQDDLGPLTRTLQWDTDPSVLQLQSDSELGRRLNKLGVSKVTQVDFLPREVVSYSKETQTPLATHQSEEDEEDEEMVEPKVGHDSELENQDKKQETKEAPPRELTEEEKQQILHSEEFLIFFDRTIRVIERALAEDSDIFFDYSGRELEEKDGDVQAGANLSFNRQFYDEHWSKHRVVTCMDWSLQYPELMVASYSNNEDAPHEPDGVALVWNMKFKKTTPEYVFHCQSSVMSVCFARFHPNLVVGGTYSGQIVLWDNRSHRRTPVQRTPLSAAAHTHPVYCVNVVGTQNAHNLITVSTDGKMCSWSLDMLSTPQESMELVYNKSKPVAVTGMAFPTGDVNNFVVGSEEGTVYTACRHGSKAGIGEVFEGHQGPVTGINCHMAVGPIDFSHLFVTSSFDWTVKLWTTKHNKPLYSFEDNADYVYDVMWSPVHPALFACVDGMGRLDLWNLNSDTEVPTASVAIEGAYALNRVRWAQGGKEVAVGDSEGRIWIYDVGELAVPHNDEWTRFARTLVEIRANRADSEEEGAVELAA

B1: KLC1^TPR, purified TPR domain of KLC1 (domain or fragment)
chain: YEIPARLRTLHNLVIQYASQGRYEVAVPSCKQALEDLEKTSGHDHPDVATMLNILALVYRDQNKYKDAANLLNDALAIREKTLGRDHPAVAATLNNLAVLYGKRGKYKEAEPLCKRALEIREKVLGKDHPDVAKQLNNLALLCQNQGKYEEVEYYYQRALGIYQTKLGPDRTPNVAKTKNNLASCYLKQGKFKQAETLYKEILTRAHEAEFGSVDDENKPIWMHAEEREECKGKQKDGSAFGEYGGWYKACKVDSPTVTTTLKNLGALYRRQGKFEAAETLEEAAMRSRKQGL
The molecule B1 yielded a Kd in test [1] of 7.58 ± 0.61 µM.

B2: HA-tagged KLC2 (kinesin light chain 2) (natural protein, UniProt O88448 1-599, looked up)
chain: MATMVLPREEKLSQDEIVLGTKAVIQGLETLRGEHRALLAPLASHEAGEAEPGSQERCLLLRRSLEAIELGLGEAQVILALSSHLGAVESEKQKLRAQVRRLVQENQWLREELAGTQQKLQRSEQAVAQLEEEKQHLLFMSQIRKLDEMLPQEEKGDVPKDSLDDLFPNEDEQSPAPSPGGGDVAAQHGGYEIPARLRTLHNLVIQYASQGRYEVAVPLCKQALEDLEKTSGHDHPDVATMLNILALVYRDQNKYKDAAHLLNDALAIREKTLGKDHPAVAATLNNLAVLYGKRGKYKEAEPLCKRALEIREKVLGKFHPDVAKQLSNLALLCQNQGKAEEVEYYYRRALEIYATRLGPDDPNVAKTKNNLASCYLKQGKYQDAETLYKEILTRAHEKEFGSVNGENKPIWMHAEEREESKDKRRDRRPMEYGSWYKACKVDSPTVNTTLRTLGALYRPEGKLEAAHTLEDCASRSRKQGLDPASQTKVVELLKDGSGRGHRRGSRDVAGPQSESDLEESGPAAEWSGDGSGSLRRSGSFGKLRDALRRSSEMLVRKLQGGGPQEPNSRMKRASSLNFLNKSVEEPVQPGGRVFLTAAL
notes: kinesin light chain 2; source: COS cells, cotransfected, in lysate
B2: the “fold co-immunoprecipitated relative to KLC1” value in test [2] worked out at 5 fold.
